Experimental data: article PMC5133711

Tests used:
[1] = tested on: JARID2 1-530 (hJARID2); assay: BLI; conditions: BLI: 10 mM HEPES pH 7.4, 150 mM NaCl, 3 mM EDTA, 0.005% Tween-20, 1 mg/ml BSA, 25 C, pull-down buffer not given in the material
[2] = molecular target: H2AK119u1(I44A) mononucleosomes (Xenopus | not stated) (UniProt P0CG48); assay: BLI; biotinylated mononucleosomes immobilised on streptavidin biosensors; Jarid2 1-530 at 2–25 μM; 25 °C; 10 mM HEPES pH 7.4, 150 mM NaCl, 3 mM EDTA, 0.005% Tween-20, 1 mg/ml BSA; kon and koff from kobs versus concentration; n=3
[3] = molecular target: H2AK119u1-modified mononucleosomes (Xenopus | not stated); assay: as above
[4] = molecular target: unmodified mononucleosomes (Xenopus); assay: as above

H2AK119u1 mononucleosome (601, 147 bp) was tested, and the Kd ([1]; kon 576 s-1 (so in the source), H2A K119C crosslinked to His-ubiquitin G67C (so in the source) by 1,3-dichloroacetone) was 2.8 µM.

In the case of “H2AK119u1(I44A) mononucleosome (601, 147 bp)”, the Kd ([1]; H2A K119C crosslinked to His-ubiquitin I44A;G67C (so in the source)) is reported as 5.1 µM.

For “hJARID2 1–530 (from UniProt Q92833 1-530) (domain or fragment)”, the Kd [2] was 5.1 µM, the Kd [3] was 2.8 µM and the Kd [4] was 5 µM.

For unmodified mononucleosome (601, 147 bp), the Kd ([1]; kon 313 s-1 (so in the source)) was 5 µM.
